In data set [1] the test system is NP isolated from virus (Influenza A virus (strain for filter assay not stated; A/PR/8/34 used for MS)). Put plainly: filter binding. Particulars: running buffer with 300 mM NaCl and 0.025% P20, 25 C, conditions not given.
The test system of data set [2] is wt NP, recombinant (filter binding) (Influenza A virus (A/WSN/33, H1N1)). Description: filter binding. Particulars: running buffer with 300 mM NaCl and 0.025% P20, 25 C, conditions not given.
For data set [3], the target named is wild type nucleoprotein of influenza A virus H1N1 strain A/WSN/33 (influenza A virus H1N1 strain A/WSN/33). Put plainly: crystal structure.

Consider 81 nt panhandle RNA, for which the Kd in data set [1] and in data set [2] was 30 nM throughout. Regarding “wild type nucleoprotein of influenza A virus H1N1 strain A/WSN/33 (natural protein)”, in data set [3], the stoichiometry N amounted to 3.
